The values that follow are results of earlier work, collected in article PMC8805269.

For this data set, the target named is Swi6 CSD (Schizosaccharomyces pombe) (UniProt P40381).

Where only a bound is given, the exact number is not on record here.

As for Swi6 CSD (from UniProt P40381), the Kd (in general, the constant that tells how readily two partners part at equilibrium) was below 17 nM.
